In PMC3134637:
Like-named read-outs stand apart in the source and are kept apart here.

How the values were obtained:
Assay in all cases: HiTS-FLIP
6xHis-mOrange-Gcn4p [1] = biological target: T1, 6xHis-mOrange-Gcn4p (Saccharomyces cerevisiae, UniProt P03069 1-281)
6xHis-mOrange-Gcn4p [2] = biological target: T1, 6xHis-mOrange-Gcn4p; remark: listed apart in the source
6xHis-mOrange-Gcn4p [3] = biological target: T1, 6xHis-mOrange-Gcn4p; remark: listed apart in the source
6xHis-mOrange-Gcn4p [4] = biological target: T1, 6xHis-mOrange-Gcn4p; remark: listed apart in the source
6xHis-mOrange-Gcn4p [5] = biological target: T1, 6xHis-mOrange-Gcn4p; remark: listed apart in the source
6xHis-mOrange-Gcn4p [6] = biological target: T1, 6xHis-mOrange-Gcn4p; remark: listed apart in the source

T1 sequence (P03069 whole entry): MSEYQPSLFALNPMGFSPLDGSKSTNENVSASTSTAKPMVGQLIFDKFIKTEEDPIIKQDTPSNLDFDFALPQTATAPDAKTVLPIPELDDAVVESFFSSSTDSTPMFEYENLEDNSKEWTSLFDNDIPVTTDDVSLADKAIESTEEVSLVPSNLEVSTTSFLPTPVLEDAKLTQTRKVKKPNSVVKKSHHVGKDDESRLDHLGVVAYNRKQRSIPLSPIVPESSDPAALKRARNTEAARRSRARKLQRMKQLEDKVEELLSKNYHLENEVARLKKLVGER

B1: 11mer flanks T,C (dsDNA)
DNA 1: TATGACTCATC
DNA 2: GATGAGTCATA
- binding result (6xHis-mOrange-Gcn4p [1]): binds

B2: adjacent half-sites ATGACGTCAT (dsDNA)
DNA 1: ATGACGTCAT
DNA 2: ATGACGTCAT
- binding result (6xHis-mOrange-Gcn4p [2]): binds

B3: 10mer ATGACTCATA (dsDNA)
DNA 1: ATGACTCATA
DNA 2: TATGAGTCAT
- binding result (6xHis-mOrange-Gcn4p [3]): binds

B4: consensus 7mer TGACTCA (dsDNA)
DNA 1: TGACTCA
DNA 2: TGAGTCA
- binding result (6xHis-mOrange-Gcn4p [4]): binds

B5: 11mer consensus TATGACTCATA (T,A flanks) (dsDNA)
DNA 1: TATGACTCATA
DNA 2: TATGAGTCATA
- binding result (6xHis-mOrange-Gcn4p [5]): binds

B6: 9mer ATGACTCAT (dsDNA)
DNA 1: ATGACTCAT
DNA 2: ATGAGTCAT
- binding result (6xHis-mOrange-Gcn4p [6]): binds

B7: 11mer flanks G,A (dsDNA)
DNA 1: GATGACTCATA
DNA 2: TATGAGTCATC
- binding result (6xHis-mOrange-Gcn4p [1]): binds

B8: 11mer flanks C,A (dsDNA)
DNA 1: CATGACTCATA
DNA 2: TATGAGTCATG
- binding result (6xHis-mOrange-Gcn4p [1]): binds

B9: 10mer TATGACTCAT (dsDNA)
DNA 1: TATGACTCAT
DNA 2: ATGAGTCATA
- binding result (6xHis-mOrange-Gcn4p [3]): binds
